The values that follow come from article PMC11617691, “‘GGFGGQ’ repeats in Hfq of Acinetobacter baumannii are essential for nutrient utilization and virulence”.

The target in one data set is T1, Hfq WT (Acinetobacter baumannii, UniProt V5VC31 1-168).
T1 sequence: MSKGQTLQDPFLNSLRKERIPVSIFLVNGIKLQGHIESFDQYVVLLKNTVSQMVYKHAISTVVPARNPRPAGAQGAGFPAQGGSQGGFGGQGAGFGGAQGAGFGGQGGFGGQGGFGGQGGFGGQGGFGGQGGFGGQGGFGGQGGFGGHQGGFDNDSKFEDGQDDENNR
The experiment in a line: fluorescence anisotropy; Kd printed only in figure; TNK buffer: 10 mM Tris-HCl pH 7.5, 50 mM NaCl, 50 mM KCl; 50 nM D16-FAM; 30 °C; 100 µl. Particulars: protein: recombinant; tags: none (tag-free, stop codon in pET-28); chain copies: 6; label: 5'-FAM.

For a further data set, the target named is T2, Hfq66 (Acinetobacter baumannii, UniProt V5VC31 1-66).
T2 sequence: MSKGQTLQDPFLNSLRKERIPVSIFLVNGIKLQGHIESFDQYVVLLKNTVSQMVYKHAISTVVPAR
The data set is described as follows: fluorescence anisotropy; higher affinity (lower Kd) than WT; Kd printed only in figure; TNK buffer: 10 mM Tris-HCl pH 7.5, 50 mM NaCl, 50 mM KCl; 50 nM D16-FAM; 30 °C; 100 µl. Particulars: protein: recombinant; tags: none (tag-free); chain copies: 6; label: 5'-FAM.

Consider CGAAUUUUUUAAGUGC (ssRNA) [D16-FAM], for which the binding result with Hfq WT and in the data set with Hfq66 was “binds” in each case.
